Assay results as given in paper PMC11218540, “Influence of PepF peptidase and sporulation on microcin J25 production in Bacillus subtilis” (Microbiology Spectrum, 2024).
Bridges are numbered along the chain shown (N, C = ends). Where no end group is shown, it is not given here.

Columns and labels:
[1] = test system: proteases (including peptidases); conditions: cited from earlier work
Excerpt: Peptidases are important tools in the growth and metabolism of various organisms, including B. subtilis, and they are classified as exopeptidases and endopeptidases depending on the position of peptide bond cleavage ([22]). Different classes of peptidases are associated with important biological pathways. Based on similarity, PepA (yuiE) is predicted to be an aminopeptidase in B. subtilis, but its exact function has not been studied. In E. coli, PepA is a well-defined leucyl aminopeptidase with cysteinyl–glycinase activity, which involves glutathione turnover ([23]). Since glutathione is absen ...

[2] = at the highest concentration required to inhibit bacterial growth; cited from earlier work
Excerpt: Microcins are antimicrobial peptides synthesized by ribosomes and are produced by some Enterobacteriaceae species under the condition of nutrient depletion to kill or inhibit neighboring competitors ([1], [2]). Microcins are divided into two categories, namely, class I and class II, according to their molecular masses. Class I microcins have mass less than 5 kDa, while that of class II microcins is between 5 and 10 kDa ([1]). Microcin J25 (MccJ25) is a class I microcin with a unique lasso-like structure ([3][–][5]) that inhibits or kills target bacteria (primarily Gram-negative Enterobacteriac ...

[3] = molecular target: PepA (Bacillus subtilis, UniProt O32106); conditions: 8 hours at 37°C, data not shown
Chain of PepA (O32106 whole entry): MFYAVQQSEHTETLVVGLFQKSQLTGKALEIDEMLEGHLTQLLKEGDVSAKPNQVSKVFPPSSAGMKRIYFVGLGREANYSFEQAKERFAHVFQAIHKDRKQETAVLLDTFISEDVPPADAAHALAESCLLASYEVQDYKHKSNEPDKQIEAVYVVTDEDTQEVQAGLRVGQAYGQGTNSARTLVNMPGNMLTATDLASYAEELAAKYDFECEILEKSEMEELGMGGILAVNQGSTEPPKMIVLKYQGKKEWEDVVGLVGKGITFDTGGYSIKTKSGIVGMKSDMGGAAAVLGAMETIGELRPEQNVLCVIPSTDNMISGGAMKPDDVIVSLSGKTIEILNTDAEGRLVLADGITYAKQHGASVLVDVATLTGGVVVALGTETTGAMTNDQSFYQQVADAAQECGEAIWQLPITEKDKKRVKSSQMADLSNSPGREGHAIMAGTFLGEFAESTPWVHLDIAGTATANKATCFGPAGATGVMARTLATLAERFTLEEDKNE
Experimental: (§1) To examine the degradation effect of these three peptidases on the lasso peptide MccJ25, we performed the enzymatic (proteolytic treatment) reaction of MccJ25 with each peptidase enzyme for 8 hours at 37°C and measured the antibacterial activity and concentration of MccJ25 in the incubation products.
(§2) To investigate whether B. subtilis peptidases play an inhibitory role in the maturation of MccJ25, we synthesized a linear peptide chain consisting of 21 amino acid residues for mimicking the MccJ25 precursor peptide. The linear peptide was incubated with PepA, PepF, and PepT, and the effects of degradation of these three peptidases on the MccJ25 precursor peptide were determined.
(§3) The MccJ25 lasso peptide was obtained by a reverse-phase solid-phase extraction method, as described in previous studies ([15]). The MccJ25 lasso peptide was examined by antimicrobial activity analysis and UPLC-QqQ mass spectrometry analysis. The antibacterial activity analysis method and UPLC-QqQ mass spectrometry analysis process for MccJ25 have been described in detail in our previous articles ([21]). […] Quantitative analysis of the MccJ25 linear/lasso peptide was performed by ultra-performance liquid chromatography coupled with triple quadrupole mass spectrometry (UPLC-QqQ, Agilent Co., USA) in the positive ion mode. All original images of SDS-PAGE and spot-on-lawn were cropped and brightness adjusted using Fireworks software (Vesion CS 6, Adobe Systems Incorporated).
(§4) The strains BL21A (BL21-DE3, pET28a-PepA), BL21F (BL21-DE3, pET28a-PepF), and BL21T (BL21-DE3, pET28a-PepT) were used to produce the peptidases PepA, PepF, and PepT, respectively, and BL21O (BL21-DE3, pET28a+) was used as a control strain. […] L-leucine-p-nitroanilide was used as the standard chromogenic substrate for aminopeptidases to identify whether these three peptidases are aminopeptidases in B. subtilis. The mixture of peptidase (10%) and L-leucine-p- nitroanilide (1 mM) was reacted in Tris-HCl buffer solution at pH = 8.5 and 50°C for 10 minutes.

[4] = molecular target: T1, PepF (Bacillus subtilis, UniProt O31605); conditions: mature lasso peptide incubated with purified PepF 8 hours at 37°C, compared with non-peptidase-treated
T1 sequence (O31605 whole entry, looked up): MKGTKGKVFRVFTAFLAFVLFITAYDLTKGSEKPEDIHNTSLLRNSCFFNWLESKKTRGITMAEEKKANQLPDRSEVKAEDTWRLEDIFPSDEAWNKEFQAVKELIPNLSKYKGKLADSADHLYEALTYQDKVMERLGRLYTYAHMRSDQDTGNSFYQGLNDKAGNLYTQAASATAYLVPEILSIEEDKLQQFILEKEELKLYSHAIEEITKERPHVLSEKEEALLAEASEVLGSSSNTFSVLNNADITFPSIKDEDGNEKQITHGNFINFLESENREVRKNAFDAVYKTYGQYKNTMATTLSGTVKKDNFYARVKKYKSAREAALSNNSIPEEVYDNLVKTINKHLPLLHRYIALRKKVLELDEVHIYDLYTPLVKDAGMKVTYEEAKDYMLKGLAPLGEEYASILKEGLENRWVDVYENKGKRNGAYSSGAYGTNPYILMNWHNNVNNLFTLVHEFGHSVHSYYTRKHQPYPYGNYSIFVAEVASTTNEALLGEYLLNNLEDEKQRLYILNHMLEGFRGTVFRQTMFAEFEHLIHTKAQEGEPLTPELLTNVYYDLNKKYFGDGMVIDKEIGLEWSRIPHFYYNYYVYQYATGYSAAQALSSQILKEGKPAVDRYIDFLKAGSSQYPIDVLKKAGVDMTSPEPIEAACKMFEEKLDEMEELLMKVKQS
Experimental: as §1, §2, §3, §4

[5] = molecular target: PepT (Bacillus subtilis, UniProt P55179); conditions: 8 hours at 37°C, data not shown
Chain of PepT (P55179 whole entry): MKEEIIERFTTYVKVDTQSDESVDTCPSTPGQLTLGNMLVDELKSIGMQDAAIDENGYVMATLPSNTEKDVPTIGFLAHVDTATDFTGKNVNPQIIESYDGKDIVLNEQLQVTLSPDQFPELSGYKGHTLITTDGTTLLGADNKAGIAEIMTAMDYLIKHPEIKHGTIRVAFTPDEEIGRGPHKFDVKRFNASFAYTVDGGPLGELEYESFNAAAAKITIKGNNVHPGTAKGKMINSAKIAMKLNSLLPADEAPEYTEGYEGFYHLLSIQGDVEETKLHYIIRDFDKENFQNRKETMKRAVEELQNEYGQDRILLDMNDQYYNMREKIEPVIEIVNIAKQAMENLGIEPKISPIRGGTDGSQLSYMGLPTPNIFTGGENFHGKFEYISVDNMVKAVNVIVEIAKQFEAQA
Experimental: as §1, §2, §3, §4

[6] = spot-on-lawn assay, S. enteritidis CVCC3377

## microcin J25 (GGAGHVPEYFVGIGTPISFYG; lactam N-8 (inferred); UniProt Q9X2V7 38-58, looked up) [MccJ25]
[1]
  resistance to proteases (including peptidases): high resistance
[2]
  toxicity and hemolysis: neither toxic nor hemolytic
[3]; UPLC-QqQ-MS
  concentration of mature MccJ25 after treatment with PepA: remained unchanged
[3]; [6]
  antibacterial activity of mature MccJ25 after treatment with PepA: remained unchanged
[4]; UPLC-QqQ-MS
  concentration of MccJ25 after treatment with PepF: unchanged
[4]; spot-on-lawn assay, indicator S. enteritidis CVCC3377
  antibacterial activity of MccJ25 after treatment with PepF: unchanged
[5]; UPLC-QqQ-MS
  concentration of mature MccJ25 after treatment with PepT: remained unchanged
[5]; [6]
  antibacterial activity of mature MccJ25 after treatment with PepT: remained unchanged
